Measured values: patent publication US20150283275A1 (MorphoSys, published 2015)
Blank lines part the entries; values can stand above or below the binder they belong to.

How the values were obtained:
Human CD38 [1] = target: T1, Human CD38 (human, UniProt P28907 1-300); test: cell-based or functional assay
Human CD38 [2] = target: T1, Human CD38; test: cell binding assay, apparently on OPM2 myeloma cells (method cited from Huber et al 2003)

γH2AX foci per cell (DNA double-strand breaks) 0.5 h after treatment, OPM2 cells compared to ARH77 cells (Human CD38 [1]): ~2.5 fold
B1: ^213Bi-anti-CD38-MAb (antibody, V domains shown)
VH: QVQLVESGGGLVQPGGSLRLSCAASGFTFSSYYMNWVRQAPGKGLEWVSGISGDPSNTYYADSVKGRFTISRDNSKNTLYLQMNSLRAEDTAVYYCARDLPLVYTGFAYWGQGTLVTVSS
VL: DIELTQPPSVSVAPGQTARISCSGDNLRHYYVYWYQQKPGQAPVLVIYGDSKRPSGIPERFSGSNSGNTATLTISGTQAEDEADYYCQTYTGGASLVFGGGTKLTVLG

EC50 (Human CD38 [2]): 16.4 nM
B2: CHX-A″-DPTA-anti-CD38-MAb (antibody, V domains shown)
VH: B1 VH
VL: B1 VL
notes: Anti-CD38-MAb MOR03087 (= MOR202) covalently coupled to SCN-CHX-A″-DTPA; also called Chelated anti-CD38-MAb; CHX-A″-DTPA conjugate of MOR03087 (MOR202)
